Measurements reported in the RNAGym collection of RNA variant scans (doi:10.1073/pnas.2313332121).
This sample holds only a part of the variants without activity.

B1: TPR 5TU (parent)
chain: GGAUCUUCUCGAUCUAACAAAAAAGACAAAUCUGCCACAAAGCUUGAGAGCAUCUUCGGAUGCAGAGGCGGCAGCCUUCGGUGGCGCGAUAGCGCCAACGUUCUCAACUAUGACACGCAAAACGCGUGCUCCGUUGAAUGGAGUUUAUCAUG

Variants of: B1
Assay: polymerase ribozyme fitness, log enrichment relative to wild type (log ratio); higher = more active; in vitro selection for triplet polymerase activity
Method in brief: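 After PCR construction and transcription, each subunit's mutant library from a heterodimeric triplet polymerase ribozyme was annealed with a biotinylated primer, the partner subunit and triplets. Incubation was frozen, at −7 °C, and extended constructs were gel-excised, bound to streptavidin beads and amplified by RT-PCR, in one selection round done in triplicate. Fitness is the logarithm of a genotype's enrichment divided by that of the wild type, from inverse-variance-weighted replicate averages of Illumina-sequenced inputs and outputs. The base of the logarithm is 2, and genotypes needed ≥10 input reads and ≥1 read per output.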

Variant	polymerase ribozyme fitness (log ratio)
GGAUCUUCUCGAUCUAACAAAAAAGACAAAUCUGCCACAAAGCUUGAGAGCAUCUACGGAUGCAGAGGCGGCAGCCUUCGGUGGCGCGAUAGCGGCAGCGUUCUCAACUAUGACACGCAAAACGCGUGCUCCGUUGAAUGGAGUUUAUCAUG	-1.91
GGAUCUUCUCGAUCUAACAAAAAAGACAAAUCUGCCACAAAGCUUGAGAGCAUCUACGGAUGCAGAGGCGGCAGCCUUCGUUGGCGCGAUAGGGCCAACGUUCUCAACUAUGACACGCAAAACGCGUGCUCCGUUGAAUGGAGUUUAUCAUG	-3.18
GGAUCUUCUCGAUCUAACAAAAAAGACAAAUCUGCCACAAAGCUUGAGAGCAUCUACGGAUGCAGAGGCGGCAGCCUUCGGUGACGCGAUAGCGCCAUCGCUCUCAACUAUGACACGCAAAACGCGUGCUCCGUUGAAUGGAGUUUAUCAUG	-1.09
GGAUCUUCUCGAUCUAACAAAAAAGACAAAUCUGCCACAAAGCUUGAGAGCAUCUACGGAUGCAGAGGCGGCAGCCUUCGGUGCCGCGAUAGCGCCAACGUUCUCAACUAUGACACGCAAAACGCGUGCUCCGUUGAAUGGAGUUUAUCGUG	-3.39
GGAUCUUCUCGAUCUAACAAAAAAGACAAAUCUGCCACAAAGCUUGAGAGCAUCUACGGAUGCAGAGACGGCAGCCUUCGGUGGCGCGAUAGCGCCAACGUUCUCAACUAUGACACGCAAAACGCGUGCUCCGUUGAAUGGAGUUUAUCAUG	-4.01
GGAUCUUCUCGAUCUAACAAAAAAGACAAAUCUGCCACAAAGCUUGAGAGCAUCUACGGAUGCAGAGGCGGCAGCCUUCGGUGGCUCGAUAGCGCCAACGUUCUCAACUAUGACACGCAAAACGCGUGCUCCGUUGAAUGGAGUUUAUCAUG	-0.958
GGAUCUUCUCGAUCUAACAAAAAAGACAAAUCUGCCACAAAGCUUGAGAGCAUCUACGGAUGCAGAGGCGGCAGCCUUCGGUGGCCCGAUAGCGCCAACGUUCUCAACUAUGACACGCAAAACGCGUGCUCCGUUGAAUGGAGUUUAUCAUG	≤ -4.2
GGAUCUUCUCGAUCUAACAAAAAAGACAAAUCUGCCACAAAGCUUGAGAGCAUCUACGGAUGCAGAGGCGGCAGCCUUCGGUGGCGCCAUAGCGCCAAUGUUCUCAACUAUGACACGCGAAACGCGUGCUCCGUUGAAUGGAGUUUAUCAUG	≤ -4.2
GGAUCUUCUCGAUCUAACAAAAAAGACAAAUCUGCCACAAAGCUUGAGAGCAUCUACGGAUGCAGAGGCGGCAGCCUUCGGUAGCGCGAUAGCGCCAACGUUCUCAACUAUGACACGCAAAACGCGUGCUCCGUUGAAUGGAGUUUAUCAUG	-0.831
GGAUCUUCUCGAUCUAACAAAAAAGACAAAUCUGCCACAAAGCUUGAGAGCAUCUACGGAUGCAGAGGCGGCAGCCUUCGCUAGCGGGAUAGCGCCAACGUUCUCAGCUAUGACACGCAAACCGCGUGCUCCGUUGAAUGUAGUUUAUCAUG	≤ -4.2
GGAUCUUCUCGAUCUAACAAAAAAGACAAAUCUGCCACAAAGCUUGAGAGCAUCUACGUAUGCAGAGGAGGCAGCCUUCGGUGGCGUGAUAGCGCCAACGCUCUCAACUAUGACACGCAAAACGCGUGCUCCGUUGAAUUGAGUUUAUCAUG	-3.01
GGAUCUUCUCGAUCUAACAAAAAAGACAAAUCUGCCACAAAGCUUGAGAGCAUCUACCCAUGCAGAGGCGGCAGCGUUCGGUGGCGCGAUAGCGCCAACGUUCUCAACUAUGACACGCAAAACGCGUGCUCCGUUGAAUGGAGUUUAUCAUG	≤ -4.2
GGAUCUUCUCGAUCUAACAAAAAAGACAAAUCUGCCACAAAGCUUGAGAGCAUCUACGGAUGCAGAGGCGGCAGCCUUCGGUGACGCGAUAGCGCCAACGUUCUAAACUAUGACACGCAAAACGCGUGCUUCGUUGAAUGGAGUUUAUCAUG	-1.2
GGAUCUUCUCGAUCUAACAAAAAAGACAAAUCUGCCACAAAGCUUGAGAGCAUCUACGGAUGCAGAGGCGGCAGCCUUCGGUAGCGUGAUAGCGCCAACGUUCUCAACUAUGACACGCAAAACGCGUGCUCCGUUGAAUGGAGUUUAUCAUG	-3.83
GGAUCUUCUCGAUCUAACAAAAAAGACAAAUCUGCCACAAAGCUUGAGAGCAUCUACGGAUGCAGAGGCGGCAGCCUUCGGUGGCGCGAUAGCGCCAACGUUCUCAACUAUGACACGCAAAACGCGUGCUUCGUUGAAUGGAGUUUAUCAUG	0.529
GGAUCUUCUCGAUCUAACAAAAAAGACAAAUCUGCCACAAAGCUUGAGAGCAUCUACGGAUGCAGAGGCGGCAGCCUUCGGUGGCGCGAUAGAGCCAGCGUUCUCAACUAUGACACGCAAAACGCGUGCUCCGUUGAAUGGAGUUUAUCAUG	-2.63
GGAUCUUCUCGAUCUAACAAAAAAGACAAAUCUGCCACAAAGCUUGAGAGCAUCUACAGAUGCAGAGGCGGCUGCCUUCGGUGGCGCGAUAGCGCGAACGUUCUCAACUAUGACACGCAAAACGCGUGCUCCGUUGAAUGGAGUUUAUCAUG	-1.81
GGAUCUUCUCGAUCUAACAAAAAAGACAAAUCUGCCACAAAGCUUGAGAGCAUCUACGGAUGCAGAGGCGGCAGCCUUCGGUGGCGUGAUAGCGCCAACGUUCUCAACUAUGACACGCAAAACGCGUGCUGCGUUGAAUGGAGUUUAUCAUG	-3.21
GGAUCUUCUCGAUCUAACAAAAAAGACAAAUCUGCCACAAAGCUUGAGAGCAUCUACGGAUGCAGAGGCGGCAGCCUUCGGUGGCGUGAUAGCGCUAACGUUGUCAACUAUGACACGCAAAACGCGUGCUCCGUUGAAUGGAGUUUAUCAUG	-3.09

Variant	polymerase ribozyme fitness (log ratio)
GGAUCUUCUCGAUCUAACAAAAAAGACAAAUCUGCCACAAAGCUUGAGAGCAUCUACGGAUGCAGAGGCGGCAGCCUUCGGUGGCGCGAUAGCGUCAACGUUCUCAACUAUGACACGCAAAACGCGUGCUCCGUUGAAUGGAGUUUAUCAUG	0.199
GGAUCUUCUCGAUCUAACAAAAAAGACAAAUCUGCCACAAAGCUUGAGAGCAUCUACGGAUGCAGAGGCGGCAGCCUUCGGUGGCGCGAUAGCGCAAACGUUCUCAACUAUGACACGCAAAACGCGUGCUCCGUUGAAUGGAGUUUAUCAUG	-0.833
GGAUCUUCUCGAUCUAACAAAAAAGACAAAUCUGCCACAAAGCUUGAGAGCAUCUACGGAUGCAGAGGCGGCAGCCUUCGGUGGCGCGAUAGUGCCAACGUGCUCAACUAUGACACGCAAAACGCGUGCUCCGUUGAAUAGAGUUUAUCAUG	≤ -4.2
GGAUCUUCUCGAUCUAACAAAAAAGACAAAUCUGCCACAAAGCUUGAGAGCAUCUACAGAUGCAGAGGCGGCGGCCUUCGGUGGCGCGAUAGCGCUAACGUGCUCAACUAUGACACACAAAACGCGUGCUCCGUAGAAUGAAGUUUAUCAUG	≤ -4.2
GGAUCUUCUCGAUCUAACAAAAAAGACAAAUCUGCCACAAAGCUUGAGAGCAUCUACGGAUACAGAGGCGGCAGCCUCCGGUUGCGCGAUAGCGCCAACGUUCUCAACUAUGACACGCAAAACGCGUGCUCCGUUGAAUGGAGUUUAUCAUG	-3.55
GGAUCUUCUCGAUCUAACAAAAAAGACAAAUCUGCCACAAAGCUUGAGAGCAUCUACGGAUGCAGAGGCGGCAGCCUUCCGUGGCGCGAUAGAGACAACGUGCUCAACUAUGAAACGCAAAACGCGUGCUCCGUUGAAUGGAGUUUAUCUUG	≤ -4.2
GGAUCUUCUCGAUCUAACAAAAAAGACAAAUCUGCCACAAAGCUUGAGAGCAUCUACUGAUGCAGAGGCGGCAGCCUUCGGUGGCGCGAUAGCCCCAACGUUCUCAACUAUGACACGCAAAACGCGUGCUCCGUUGAAUGGAGUGUAUCAUG	0.0333
GGAUCUUCUCGAUCUAACAAAAAAGACAAAUCUGCCACAAAGCUUGAGAGCAUCUACGGAUGCAGAGGCGGCAGCCUUCGGUGGCGCGAUAGCGCCAAAGUUCUCAACUAUGACACGCAAAACGCGUGCUCCGUUGAAUGGAGUUUAUCAUG	-1.6
GGAUCUUCUCGAUCUAACAAAAAAGACAAAUCUGCCACAAAGCUUGAGAGCAUCUACGGAUGCAGAGGCGGCAGCCUUCGGUGGCGUGAUAGCGCCAACGUUCUCAACUAUGACACGCAAAACGCGUGCUCCGUUGAAUGGAGUUUAACAUG	-3.33
GGAUCUUCUCGAUCUAACAAAAAAGACAAAUCUGCCACAAAGCUUGAGAGCAUCUACGGAUGCAGAGGCGGCAGCCUUCGGUGGCGCCAUAGCGCCAACGUUCUCAACUAUGACACGCAAAGGGCGUGCUCCGUUGAAUGGAGUUUAUCAUG	≤ -4.2
GGAUCUUCUCGAUCUAACAAAAAAGACAAAUCUGCCACAAAGCUUGAGAGCAUCUACGGAUGCAGAGGCCGCAGCCUUCGGUGGCGCGAUAGCGCCAACGUUCUCAACUAUGACACCCAAAACGCGUGCUCCGUUGAAUGGAGUUUAUCAUG	-3.79
GGAUCUUCUCGAUCUAACAAAAAAGACAAAUCUGCCACAAAGCUUGAGAGCAUCUACUGAUGCAGAGGCGGCAGCCUUCGGUGGCGCGAUAGCGCCAUCCUUCUCAACUAUGACACGCAAAACGCGUGCUCCGUUGAAUGGAGUUUAUCAUG	≤ -4.2
GGAUCUUCUCGAUCUAACAAAAAAGACAAAUCUGCCACAAAGCUUGAGAGCAUCUACGGAUGCAGAGGCGGCAGCCUUCGCUGGCGUGAUAGCGCCAACGUUCUCAACUAUGACACGCAAAACGCGUGCUCCGUUGAAUGGAGUUUAUCAUG	-1.03
GGAUCUUCUCGAUCUAACAAAAAAGACAAAUCUGCCACAAAGCUUGAGAGCAUCUACGGAUGCAGAGGCGGCAGCCUUCGGUGGCGCGAUAGAGCCAACGUUCUCGACUAUGACACGCAAAACGCGUGCUCCGUUGAAUGGAGUUUAUCAUG	-1.97
GGAUCUUCUCGAUCUAACAAAAAAGACAAAUCUGCCACAAAGCUUGAGAGCAUCUACAGAUGCAGAGGCGGCAGCCUUCGGUGGCGCGAUAGAGCCAACGUUCUCAACUAUGACACGCAAAACGCGUGCUCCGUUGAAUGGAGUUUAUCAUG	-1.41
GGAUCUUCUCGAUCUAACAAAAAAGACAAAUCUGCCACAAAGCUUGAGAGCAUCUACGGAUGCAGAGGCGGCAGCCUUCGGUGGCGCGAUAGCGCCAACGUUCUCAACUAUGAGACGCAAAACGCGUGCUCCGUUGAAUGGAGUUUAUCAUG	-3.1
GGAUCUUCUCGAUCUAACAAAAAAGACAAAUCUGCCACAAAGCUUGAGAGCAUCUACGGAUGCAGAGGCGGCAGCCUUCGGUGGCGCGAUAGCGCUAACGUUCUCAACUAUGACACGCAAAACGCGUGCUCCGUUGAAUGGAGUUUAACAUG	-3.44
GGAUCUUCUCGAUCUAACAAAAAAGACAAAUCUGCCACAAAGCUUGAGAGCAUCUACGGAUGCAGAGGCGGCAGCCUUCGGUGACGCGAUGGCGCCAACGUUCUCAACUAUGACACGCAAAACGCGUGCUCCGUUGAAUGGAGUUUAUCAUG	-3.59
GGAUCUUCUCGAUCUAACAAAAAAGACAAAUCUGCCACAAAGCUUGAGAGCAUCUACGGAUGCAGAGGCGGCAGCCUUCGGUGGCGUGAUAGCGCCAACGUUCUCAACUAUGACACGCAAAACGCGUGCUCCGUUGAAUGGAGUUUAUCAUG	-1.66
